The target in this assay is biotinylated AviTag-BiP^19–413 (NBD), G3I8R9. Kind of assay: BLI. The following applies: chain shown with the change; for response: equilibrium signal, read off a plot; for other: K1/2 max: streptavidin biosensors loaded with biotinylated BiP NBD, equilibrium signal vs [MANF] 0-100 µM, parent: 13.9.
biotinylated AviTag-BiP^19–413 (NBD), G3I8R9, sequence (G3I8R9 19-413): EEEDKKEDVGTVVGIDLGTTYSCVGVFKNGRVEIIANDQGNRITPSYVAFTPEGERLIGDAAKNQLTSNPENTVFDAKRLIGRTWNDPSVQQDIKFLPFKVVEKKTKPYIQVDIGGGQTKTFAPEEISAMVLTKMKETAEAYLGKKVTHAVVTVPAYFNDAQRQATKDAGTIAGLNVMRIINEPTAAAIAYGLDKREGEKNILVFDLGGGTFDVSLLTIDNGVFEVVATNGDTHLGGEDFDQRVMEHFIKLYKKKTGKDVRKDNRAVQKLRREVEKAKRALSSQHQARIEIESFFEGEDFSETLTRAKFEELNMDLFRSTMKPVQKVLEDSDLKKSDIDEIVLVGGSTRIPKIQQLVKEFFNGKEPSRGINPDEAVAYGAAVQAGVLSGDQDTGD

B1: Full-length mouse MANF (wild-type), Q9CXI5 E153A (protein)
chain: LRPGDCEVCISYLGRFYQDLKDRDVTFSPATIEEELIKFCREARGKENRLCYYIGATDDAATKIINEVSKPLAHHIPVEKICEKLKKKDSQICELKYDKQIDLSTVDLKKLRVKELKKILDDWGEMCKGCAAKSDYIRKINELMPKYAPKAASARTDL
For the molecule B1, the response reads like this: (50 µM MANF, parent: est. 0.68) 0.17 nm; (100 µM MANF, parent: est. 0.78) 0.24 nm.

B2: Full-length mouse MANF (wild-type), Q9CXI5 R133E (protein)
chain: LRPGDCEVCISYLGRFYQDLKDRDVTFSPATIEEELIKFCREARGKENRLCYYIGATDDAATKIINEVSKPLAHHIPVEKICEKLKKKDSQICELKYDKQIDLSTVDLKKLEVKELKKILDDWGEMCKGCAEKSDYIRKINELMPKYAPKAASARTDL
On to B2, for which the response (50 µM MANF, parent: est. 0.68) was determined as 0.1 nm and the response (100 µM MANF, parent: est. 0.78) was 0.13 nm.

B3: Full-length mouse MANF (wild-type), Q9CXI5 K138A (protein)
chain: LRPGDCEVCISYLGRFYQDLKDRDVTFSPATIEEELIKFCREARGKENRLCYYIGATDDAATKIINEVSKPLAHHIPVEKICEKLKKKDSQICELKYDNQIDLSTVDLKKLRVKELAKILDDWGEMCKGCAEKSDYIRKINELMPKYAPKAASARTDL
Consider B3, for which the response is 0.3 nm (50 µM MANF, parent: est. 0.68) and 0.42 nm (100 µM MANF, parent: est. 0.78). For the same molecule, the other: K1/2 max (R2 0.913) was found to be 31 µM.

B4: Full-length mouse MANF (wild-type), Q9CXI5 R23A (protein)
chain: LAPGDCEVCISYLGRFYQDLKDRDVTFSPATIEEELIKFCREARGKENRLCYYIGATDDAATKIINEVSKPLAHHIPVEKICEKLKKKDSQICELKYDNQIDLSTVDLKKLRVKELKKILDDWGEMCKGCAEKSDYIRKINELMPKYAPKAASARTDL
As for B4, the response reads like this: (50 µM MANF, parent: est. 0.68) 0.52 nm; (100 µM MANF, parent: est. 0.78) 0.58 nm. For the same molecule, the other: K1/2 max (R2 0.978) was 15.3 µM.
